Experimental data reported in patent US20200270588A1, “GLUCOSYL TRANSFERASE POLYPEPTIDES AND METHODS OF USE” (Syngenta Participations AG, priority 2017, published 2020).

B1: P284F: additional mutation in SEQ ID No: 17 (protein)
chain: MASSRTGAGAGGRVVVFPFPFQGHFNPVMRLARALHARGLAITVFHSGALDPADYPADYRFVPVTVEADPKLLASEDIAAIVTTLNASCDAPFRARLSALLAAEGRDSVRCVFTDVVWNAVLTASSDLGVPALGMMTASAASLRDYMAYRTLIDKGYLPVKEERKEDPVPELPPYLVKDLLRVDTSDLEEFAELLARTVTAARRASGLIFNTFPLIETDTLAEIHKALSVPVFAVAPLNKLVPTATASLHGVVQADRGCLQWLDTQQPGSVLYVSFGSFAAMDFHEFVELAWGLADSKRPFVWVVRPNLIRGFESGALPDGVEDEVRGRGIVVKWAPQEEVLAHPAVGGFLTHNGWNSTVEAISEGVPMVCCPRHGDQFGNMRYVCDVWKVGTELVGEQLERGQVKAAIDRLFGTKEGEEIKERMKEFKIAAAKGIGIGVDVDETASPRTDLTDLVDLIKSF
modifications: Mutated Zea mays Bx9 protein sequence
B2: W303L: additional mutation in SEQ ID No: 17 (protein)
chain: MASSRTGAGAGGRVVVFPFPFQGHFNPVMRLARALHARGLAITVFHSGALDPADYPADYRFVPVTVEADPKLLASEDIAAIVTTLNASCDAPFRARLSALLAAEGRDSVRCVFTDVVWNAVLTASSDLGVPALGMMTASAASLRDYMAYRTLIDKGYLPVKEERKEDPVPELPPYLVKDLLRVDTSDLEEFAELLARTVTAARRASGLIFNTFPLIETDTLAEIHKALSVPVFAVAPLNKLVPTATASLHGVVQADRGCLQWLDTQQPGSVLYVSFGSFAAMDPHEFVELAWGLADSKRPFVLVVRPNLIRGFESGALPDGVEDEVRGRGIVVKWAPQEEVLAHPAVGGFLTHNGWNSTVEAISEGVPMVCCPRHGDQFGNMRYVCDVWKVGTELVGEQLERGQVKAAIDRLFGTKEGEEIKERMKEFKIAAAKGIGIGVDVDETASPRTDLTDLVDLIKSF
modifications: Mutated Zea mays Bx9 protein sequence
B3: F313M: additional mutation in SEQ ID No: 17 (protein)
chain: MASSRTGAGAGGRVVVFPFPFQGHFNPVMRLARALHARGLAITVFHSGALDPADYPADYRFVPVTVEADPKLLASEDIAAIVTTLNASCDAPFRARLSALLAAEGRDSVRCVFTDVVWNAVLTASSDLGVPALGMMTASAASLRDYMAYRTLIDKGYLPVKEERKEDPVPELPPYLVKDLLRVDTSDLEEFAELLARTVTAARRASGLIFNTFPLIETDTLAEIHKALSVPVFAVAPLNKLVPTATASLHGVVQADRGCLQWLDTQQPGSVLYVSFGSFAAMDPHEFVELAWGLADSKRPFVWVVRPNLIRGMESGALPDGVEDEVRGRGIVVKWAPQEEVLAHPAVGGFLTHNGWNSTVEAISEGVPMVCCPRHGDQFGNMRYVCDVWKVGTELVGEQLERGQVKAAIDRLFGTKEGEEIKERMKEFKIAAAKGIGIGVDVDETASPRTDLTDLVDLIKSF
modifications: Mutated Zea mays Bx9 protein sequence
B4: E339V: additional mutation in SEQ ID No: 17 (protein)
chain: MASSRTGAGAGGRVVVFPFPFQGHFNPVMRLARALHARGLAITVFHSGALDPADYPADYRFVPVTVEADPKLLASEDIAAIVTTLNASCDAPFRARLSALLAAEGRDSVRCVFTDVVWNAVLTASSDLGVPALGMMTASAASLRDYMAYRTLIDKGYLPVKEERKEDPVPELPPYLVKDLLRVDTSDLEEFAELLARTVTAARRASGLIFNTFPLIETDTLAEIHKALSVPVFAVAPLNKLVPTATASLHGVVQADRGCLQWLDTQQPGSVLYVSFGSFAAMDPHEFVELAWGLADSKRPFVWVVRPNLIRGFESGALPDGVEDEVRGRGIVVKWAPQVEVLAHPAVGGFLTHNGWNSTVEAISEGVPMVCCPRHGDQFGNMRYVCDVWKVGTELVGEQLERGQVKAAIDRLFGTKEGEEIKERMKEFKIAAAKGIGIGVDVDETASPRTDLTDLVDLIKSF
modifications: Mutated Zea mays Bx9 protein sequence
B5: E339A (protein)
chain: MASSRTGAGAGGRVVVFPFPFQGHFNPVMRLARALHARGLAITVFHSGALDPADYPADYRFVPVTVEADPKLLASEDIAAIVTTLNASCDAPFRARLSALLAAEGRDSVRCVFTDVSWNAVLTASSDLGVPALGMMTASAASLRDYMAYRTLIDKGYLPVKEERKEDPVPELPPYLVKDLLRVDTSDLEEFAELLARTVTAARRASGLIFNTFPLIETDTLAEIHKALSVPVFAVAPLNKLVPTATASLHGVVQADRGCLQWLDTQQPGSVLYVSFGSFAAMDPHEFVELAWGLADSKRPFVWVVRPNLIRGFESGALPDGVEDEVRGRGIVVAWAPQAEVLAHPAVGGFLTHNGWNSTVEAISEGVPMVCCPRYGDQFGNMRYVCDVWKVGTELVGEQLERGQVKAAIDRLFGTKEGEEIKERMKEFKIAAAKGIGIGVDVDETASPRTDLTDLVDLIKSF
modifications: C-terminal His tag; Zea mays
B6: A432V: bx9 SEQ ID NO:1 mutant (protein)
chain: MASSRTGAGAGGRVVVFPFPFQGHFNPVMRLARALHARGLAITVFHSGALDPADYPADYRFVPVTVEADPKLLASEDIAAIVTTLNASCDAPFRARLSALLAAEGRDSVRCVFTDVSWNAVLTASSDLGVPALGMMTASAASLRDYMAYRTLIDKGYLPVKEERKEDPVPELPPYLVKDLLRVDTSDLEEFAELLARTVTAARRASGLIFNTFPLIETDTLAEIHKALSVPVFAVAPLNKLVPTATASLHGVVQADRGCLQWLDTQQPGSVLYVSFGSMAAMDPHEFVELAWGLADSKRPFVWVVRPNLIRGFESGALPDGVEDEVRGRGIVVAWAPQEEVLAHPAVGGFLTHNGWNSTVEAISEGVPMVCCPRHGDQFGNMRYVCDVWKVGTELVGEQLERGQVKAAIDRLFGTKEGEEIKERMKEFKIAVAKGIGIGVDVDETASPRTDLTDLVDLIKSF
modifications: Zea mays

Assay: UDP luminescence plate assay of E. coli extracts, mutants within SEQ ID No: 17, 2 mM metribuzin
Type: biochemical, Zea mays
Settings: for metribuzin signal relative to the SEQ ID No:17 control (first parentheses) / ratio of metribuzin to DMSO signal (second parentheses) / SIGNAL: metribuzin signal of mutant divided by the signal of the SEQ ID No. 17 control / luminescence signal observed with 2 mM metribuzin: 2 mM metribuzin; for metribuzin signal relative to the SEQ ID No:17 control (first parentheses) / ratio of metribuzin to DMSO signal (second parentheses): additional mutation in SEQ ID No: 17; for SIGNAL: metribuzin signal of mutant divided by the signal of the SEQ ID No. 17 control: relative to SEQ ID No: 17 control; for luminescence signal in the DMSO control / luminescence signal observed with 2 mM metribuzin: additional mutations within SEQ ID No: 17; for luminescence signal in the DMSO control: DMSO in place of metribuzin; for luminescence signal observed with 2 mM metribuzin: control = SEQ ID No: 17; for RATIO of the metribuzin signal to the DMSO signal: 2 mM metribuzin vs DMSO control, same mutant
Description: Activities observed with metribuzin were generally lower in magnitude than seen with herbicide V in the previous examples. For example, in one plate assay run with 2 mM metribuzin using 5 ul of diluted extract of plate-grown BL21DE3 cells expressing w/t bx9 and assayed for 40 minutes (as described in Example 2) the UDP-Glo luminescence signal was ˜3.4 E6 as compared with ˜2.3E6 in the DMSO control and ˜1.7E6 in the H24A null mutant control. […] It was therefore important to assess potential improvements in the metribuzin activity of the various mutants relative to the wild type bx9 enzyme based not only on the H24A null activity control but also based upon controls with DMSO in place of metribuzin acceptor substrate. In some plate assays (using more dilute extracts) the metribuzin signals from the w/t enzyme was the same or barely greater than the DMSO control. Additionally, some mutations gave an increase in the ‘background’ UDP-glucose hydrolysis activity with just DMSO present that was the same or similar to the magnitude of the increase in signal seen with metribuzin. In these instances it is therefore uncertain from just this UDP-Glo assay method whether the specific metribuzin signal (glucosylation of metribuzin) is improved or not i.e. the signal seen with metribuzin may or may not all or to a large part be attributable to increased background hydrolysis). […] Thus the ratio of the metribuzin to DMSO signal as well as the increase in signal relative to the w/t bx9 is used to help distinguish those mutations most likely to offer the highest activity to metribuzin. A follow up assay monitored by, for example, LC MS is one method to distinguish these cases more quantitatively. The tables below summarise the results from two different sets of luminescence plate assays to detect single mutations giving improvements in the magnitude of the signal with metribuzin relative to w/t bx9 and/or the apparent specificity for metribuzin as measured by the deviation of the ratio of metribuzin to DMSO control activity from the bx9 w/t value of around unity.
A further separate screen was carried out to explore a library of additional mutations at various positions within the context of SEQ ID No: 17 for improved metribuzin activity. These were assayed, assessed and scored as above. […] These were S75K (2.5)(1.25), A236G (4.0)(1.15), A433V (3.3)(9.0) and R449C (1.8)(1.2).
A yet further and more comprehensive screen was carried out to explore saturation mutagenesis at all remaining amino acid positions within the context of SEQ ID No:17 for improved metribuzin activity. Again these were assayed, assessed and scored as above and the results of (out of the thousands screened) of the subset that were of interest are summarized in Table 16.

Molecule	metribuzin signal relative to the SEQ ID No:17 control (first parentheses)	ratio of metribuzin to DMSO signal (second parentheses)	SIGNAL: metribuzin signal of mutant divided by the signal of the SEQ ID No. 17 control	luminescence signal in the DMSO control	luminescence signal observed with 2 mM metribuzin	RATIO of the metribuzin signal to the DMSO signal
B1	1.8	1.29	1.81	2.55E+06	3.30E+06	
B2	2.3	1.35	2.30	3.10E+06	4.20E+06	
B3	1.9	1.30	1.91	2.69E+06	3.48E+06	1.29
B4	2.6	1.51	2.64	3.18E+06	4.81E+06	
B5			2.01	2.39E+06	3.66E+06	1.53
B6			3.88	5.69E+06	7.07E+06	
